In patent US20200331998A1 (ALLOGENE THERAPEUTICS, published 2020):

T1: hCD19-HIS-AVI (human, UniProt P15391 20-291, limits assumed)
T1 construct: not shown: His and Avi tags
T1 sequence (looked up): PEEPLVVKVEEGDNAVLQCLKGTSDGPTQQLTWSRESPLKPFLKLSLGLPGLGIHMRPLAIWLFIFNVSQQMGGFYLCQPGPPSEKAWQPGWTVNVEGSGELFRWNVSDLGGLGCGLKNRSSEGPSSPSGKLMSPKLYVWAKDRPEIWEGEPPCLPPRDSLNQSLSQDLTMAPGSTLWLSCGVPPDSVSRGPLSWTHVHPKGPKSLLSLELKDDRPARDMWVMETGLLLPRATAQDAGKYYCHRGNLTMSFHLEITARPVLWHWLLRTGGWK


Columns and labels:
[1] = biological target: T2, m4G7 hFab 8×His (human); experiment: Biacore SPR at 25 °C, biotinylated antibody captured on CAP chip, m4G7-hFab injected, 1:1 Binding fit printed under the sensorgram; the text (Table 3) calls this clone very high affinity, outside instrument limits
T2 construct: Immunogen and Biacore analyte; also called 4G7-human Fab-8×His fusion protein (E2153); m4G7-Fab; not shown: It lies between the VH and the 8xHis tag and is left out
Protocol: (§1) Anti-m4G7 purified sub-clone antibodies were tested for binding to m4G7-hFab. Blocking effect was determined using a sandwich assay and binding confirmation to […] was determined using a Biacore assay at 25° C. […] Sensor chip CAP (CAPture chip) #505 was used as a surface. After rehydrating the sensor chip CAP with water at 42° C. for 1 hour, the chip was dried with compressed air. The surface of the chip was conditioned using triplicate 1 min injections of regeneration solution at 10 μl/min. The regeneration solution included 3 parts of Regeneration Stock 1 (8 M guanidine-HCl) with 1 part Regeneration Stock 2 (1 M NaOH). Capture of Biotin CAPture reagent for 5 min at 2 μl/min was followed by capture of biotinylated Fusion E2153 anti-m4G7 purified sub-clones antibodies and control antibodies at 10 μg/ml for 1 min at 10 μl/min.
(§2) For the kinetics assay, the buffer and m4G7-hFab at 1 nM, 10 nM, and 100 nM were injected for 2 min at 30 μL/min followed by 5 min dissociation.

[2] = biological target: T1, hCD19-HIS-AVI; experiment: SPR (Biacore, 25° C.) sandwich assay with buffer/hCD19 injections
Protocol: as §1
The blocking effect of m4G7-hFab binding to hCD19 by the purified anti-Ids sub-clones from Fusion E2153 was determined by the sandwich assay at 25° C. Sample 1 was injected for 2 min at 30 μL/min followed by 10 sec in buffer then Sample 2 was injected for 2 min at 30 μL/min followed by 3 min dissociation: […]

[3] = biological target: T2, m4G7 hFab 8×His; experiment: SPR (Biacore, 25° C.), biotinylated antibody captured on CAP chip, m4G7-hFab as analyte
Protocol: as §1, §2

T2 sequence (VH, as listed by the source limits assumed, chain 1 of 2): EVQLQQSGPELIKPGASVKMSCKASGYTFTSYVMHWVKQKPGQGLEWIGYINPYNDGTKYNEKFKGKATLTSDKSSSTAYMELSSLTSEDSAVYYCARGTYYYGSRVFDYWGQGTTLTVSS
T2 sequence (VL, as listed by the source limits assumed, chain 2 of 2): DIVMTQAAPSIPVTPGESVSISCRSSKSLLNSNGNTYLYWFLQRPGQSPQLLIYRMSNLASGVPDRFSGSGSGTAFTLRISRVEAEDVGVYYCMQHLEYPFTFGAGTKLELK

Row | Binder | Kd [1] [nM] | koff [1] [s⁻¹] | kon [1] [M⁻¹ s⁻¹] | binding result [2] | Kd [3] [nM] | koff [3] [s⁻¹] | kon [3] [M⁻¹ s⁻¹] | t1/2 [3] [h]
1 | E2153.4D7.E11 (antibody, V domains shown, Mouse hybridoma antibody; Biotinylated for the Biacore assays; PE-labelled in flow cytometry; also called Clone E11) VH: QVQLQQSGAELVRPGTSVKVSCKASGYAFTNYLIEWVKQRPGQGLEWIGVITPGSGGSNYNEKFKGKATLTADKSSSTAYMQLSSLTSDDSAVYFCARWLDYDWFAYWGQGTLVTVSA VL: DIKMTQSPSSMYASLGERVTITCKASQDINSYLSWFQQKPGKSPKTLIYRANRLVDGVPSRFSGSGSGQDYSLTISSLEYEDMGIYYCRQCDEFPSTFGGGTKLEIK | 0.00936 | 3.65e-05 | 3.9e+06 | no binding (tested: 300 nM) |  |  |  | 
2 | E2153.1C4.E2 (antibody, V domains shown, Mouse hybridoma antibody; Biotinylated for the Biacore assays; also called Clone E2) VH: QVQLQQSGAELVKPGASVKVSCKAFGYTFTTYPIEWMRQNHGKSLEWIGNFHPYNDDTRYNEKFKDKAKLTVEKSSSTVYLELSRLTYDDSAVYYCTRGNDYDLYGMDYWGQGTSVTVSS VL: DIKMTQFPSSMYASLGERVTITCKASQDINTYLTWFQQKPGKSPKTLIYRANRLVDGVPSRFSGSGSGQDYSLTISSLEYEDMGIYYCLQCDDFPLTFGAGTKLELK |  |  |  | no binding (tested: 300 nM) | 0.0167 | 0.000128 | 7.65e+06 | 1.5
3 | E2153.1D9.B4 (antibody, V domains shown, Mouse hybridoma antibody; Biotinylated for the Biacore assays; also called Clone B4) VH: QVQLQQSGAELVRPGTSVKVSCKASGYAFTNYLIEWIKQRPGQGLEWIGVINPGSGGINYNEKFKGKATLTSDKSSSTAYMQLSSLTSDDSAVYFCARWLDYDWFAYWGQGTLVTVSA VL: DIKMTQFPSSMYASVGERVTITCKASQDINSYLSWFQQKPGKSPKTLIYRANRLVDGVPSRFSGSGSGQDYSLTISSLEYEDMGIYYCLQCDEFPFTFGGGTKLEIK | 0.00489 | 1.58e-05 | 3.22e+06 | no binding (tested: 300 nM) |  |  |  | 
4 | E2153.2H8.A8 (antibody, V domains shown, Mouse IgG1/kappa hybridoma antibody; Biotinylated for the Biacore assays; also called Clone A8; anti-UCART19 idiotype antibody A8) VH: QVQLQQSGAELVKPGASVKVSCKAFGYTFTTYPIEWMRQNHGKSLEWIGNFHPYNDDTRYNEKFKDKAKLTVEKSSSTVYLELSRLTYDDSAVYYCTRGNDYDLYGMDYWGQGTSVTVSS VL: DIKMTQSPSSMYASLGERVTITCKASQDINTYLTWFQQKPGKSPKTLIYRANRLVDGVPSRFSGSGSGQDYSLTISSLEYEDMGIYYCLQCDDFPLTFGAGTKLELKR |  |  |  | no binding (tested: 300 nM) | 0.0144 | 0.000106 | 7.35e+06 | 1.82
